# Target: B′ protein (GyrB C-terminal domain) of M. tuberculosis DNA gyrase (M. tuberculosis)
# Test: […]) in 50 mM Tris–HCl
substance,measurement,value
B′ protein (GyrB C-terminal domain) of M. tuberculosis DNA gyrase (domain or fragment),Kd,< 1000 nM

# — PMC3201873
